Drawing on the supplement of paper PMC9732359, this text covers protein stability index for 26 sequences.

The data set can be described thus: protein stability index of a GFP-peptide fusion (yeast GPS) (PSI 1-4); higher = more stable; sorted into four equal gates, so the index is relative within each strain. Summed up:
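Tiled 17-residue yeast protein peptides were fused downstream of GFP in a plasmid that also expresses Cherry, and the pooled library was carried in yeast. Mid-log cultures in leucine-free medium were sorted into four equal gates by GFP/Cherry fluorescence ratio, and plasmids from each gate were PCR-amplified and Illumina-sequenced, with reads assigned to strains by barcodes. The protein stability index for each peptide was each gate's read frequency times its gate number, summed.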

± gives the uncertainty stated by the source.

On to EVIFTDVLKSQANTEPE [MCD1], for which the protein stability index (doa10∆) was found to be 3.07 ± 0.21, the protein stability index (pdr5∆) is 3.08 ± 0.12, the protein stability index (san1∆) stood at 2.97 ± 0.088 and the protein stability index (ubr1∆) worked out at 2.95 ± 0.12.
VQKDTAIIRLHPSIYTQ [POP1]: the protein stability index came to 2.73 ± 0.29 (doa10∆), 2.19 ± 0.11 (pdr5∆) and 1.88 ± 0.14 (ubr1∆).
As for LLQVNKTFCEDPFSDVD [GRR1], the protein stability index runs as follows: (doa10∆) 3.13 ± 0.072; (pdr5∆) 3.35 ± 0.051; (san1∆) 3.32 ± 0.035; (ubr1∆) 3.28 ± 0.036.
The sequence ASSGPRYIVGVRNSVDR [RPT4] showed a protein stability index (doa10∆) of 1.29 ± 0.12, a protein stability index (pdr5∆) of 1.42 ± 0.19 and a protein stability index (ubr1∆) of 1.37 ± 0.092.
As for ALERNWPIVNSKVYFNN [RPN12], the protein stability index came to 1.93 ± 0.08 (doa10∆), 1.7 ± 0.072 (pdr5∆), 1.38 ± 0.12 (san1∆) and 1.9 ± 0.087 (ubr1∆).
In the same order, the values of SLAWSADGQTLFAGYTD [ASC1] are 2.66 ± 0.08, 3.05 ± 0.091, 2.7 ± 0.075 and 3.09 ± 0.1.
In the same order, the values of DFVRNELNDIDTKIDQV [SMC3] are 3.19 ± 0.15, 3.31 ± 0.11, 3.12 ± 0.14 and 3.29 ± 0.13.
On the same counts, the results for LCAGANNPKIQTKDSVK [IRR1] are 3.29 ± 0.1, 2.99 ± 0.1, 3.13 ± 0.11 and 3.15 ± 0.057.
Consider GVILMFAAILVLLVLPF [COB], for which the protein stability index is 2.69 ± 0.062 (doa10∆), 1.34 ± 0.05 (pdr5∆), 1.25 ± 0.065 (san1∆) and 1.14 ± 0.046 (ubr1∆).
On the same counts, the results for SELDSNDFFIIYYTPAF [YJL039C/NUP192] are 1.39 ± 0.065, 1.51 ± 0.041, 1.63 ± 0.075 and 1.55 ± 0.044.
In the same order, the values of LYAERVQDRGLSAVAQA [RPS3] are 3.09 ± 0.069, 3.28 ± 0.065, 3.3 ± 0.09 and 3.22 ± 0.044.
On the same counts, the results for GSARTRWEMEAFGEFSL [FAS2] are 1.78 ± 0.072, 2.92 ± 0.13, 2.93 ± 0.098 and 2.24 ± 0.098.
Turning to SKVSIEQRKEAAEFVLA [RPN7], the protein stability index is, setting by setting: (doa10∆) 2.12 ± 0.13; (pdr5∆) 2.49 ± 0.15; (san1∆) 2.45 ± 0.09; (ubr1∆) 2.45 ± 0.06.
On the same counts, the results for ADAGIELVDMAGAGEAN [MTR3] are 2.76 ± 0.11, 2.69 ± 0.084, 2.32 ± 0.1 and 2.9 ± 0.086.
For GINKKKLLAISKFNNAD [RPC31], the protein stability index stood at 1.93 ± 0.18 (pdr5∆) and 2.97 ± 0.23 (san1∆).
For VPVALKGQGPFTLTYDI [YMR129W/POM152], the protein stability index (doa10∆) was found to be 2.58 ± 0.096, the protein stability index (pdr5∆) amounted to 2.95 ± 0.11, the protein stability index (san1∆) worked out at 2.83 ± 0.069 and the protein stability index (ubr1∆) stood at 2.8 ± 0.061.
Regarding LLVQSLNDMVLELKENY [NNF1], the protein stability index stood at 2.75 ± 0.14 (doa10∆) and 1.52 ± 0.1 (pdr5∆).
Take ADINSNRLSNPQKNLLL [YOR098C/NUP1]: the protein stability index runs as follows: (doa10∆) 3.11 ± 0.069; (pdr5∆) 3 ± 0.07; (san1∆) 2.81 ± 0.065; (ubr1∆) 2.88 ± 0.082.
In the same order, the values of ELGEQKCQELVTNIRRI [RRP46] are 2.09 ± 0.072, 1.81 ± 0.056, 1.55 ± 0.15 and 1.98 ± 0.071.
In the same order, the values of KRKKEANEEPNTENVES [ITC1] are 3.1 ± 0.062, 2.74 ± 0.046, 2.78 ± 0.07 and 2.65 ± 0.034.
In the same order, the values of KGLVSQQLDSFNQFVDY [RPB2] are 2.64 ± 0.077, 2.52 ± 0.1, 2.41 ± 0.078 and 2.6 ± 0.066.
Consider NIELHSLYTSREPRVVS [PUP1], for which the protein stability index reads like this: (doa10∆) 2.56 ± 0.1; (pdr5∆) 3.1 ± 0.068; (san1∆) 3.22 ± 0.09; (ubr1∆) 3.07 ± 0.078.
On the same counts, the results for GDPFDYKAQADTFYMNV [RPB3] are 3.4 ± 0.1, 3.44 ± 0.1, 3.33 ± 0.063 and 3.36 ± 0.083.
On the same counts, the results for RKLGLLGDKEDEKQSAK [MTW1] are 3.37 ± 0.083, 3.41 ± 0.09, 2.94 ± 0.1 and 3.28 ± 0.067.
In the same order, the values of KRPIESGTSSDPDTKKV [YIL149C/MLP2] are 3.35 ± 0.079, 3.2 ± 0.053, 3.2 ± 0.062 and 3.29 ± 0.072.
As for RQSSVGSLNATNFSPTP [SNF2], the protein stability index is 2.75 ± 0.049 (doa10∆), 2.98 ± 0.048 (pdr5∆), 2.54 ± 0.044 (san1∆) and 2.96 ± 0.051 (ubr1∆).
